Laboratory results published in PMC9482650, “Quantitative fragmentomics allow affinity mapping of interactomes” (Nature Communications, 2022).

T1: APBA2_1, Q99767
T1 sequence (Q99767 563-664, limits assumed, looked up): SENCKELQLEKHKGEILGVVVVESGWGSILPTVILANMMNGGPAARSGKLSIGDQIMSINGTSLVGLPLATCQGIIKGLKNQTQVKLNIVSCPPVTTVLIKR

T2: DFNB31_1, Q9P202
T2 sequence (Q9P202 135-233, limits assumed, looked up): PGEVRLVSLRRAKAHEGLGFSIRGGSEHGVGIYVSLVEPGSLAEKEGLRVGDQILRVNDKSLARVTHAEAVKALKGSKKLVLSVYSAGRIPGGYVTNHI

T3: DVL3, Q92997
T3 sequence (Q92997 244-331, limits assumed, looked up): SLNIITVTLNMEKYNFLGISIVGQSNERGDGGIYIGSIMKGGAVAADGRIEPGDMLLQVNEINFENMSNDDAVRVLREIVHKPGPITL

T4: GRIP1_2, Q9Y3R0
T4 sequence (Q9Y3R0 145-248, limits assumed, looked up): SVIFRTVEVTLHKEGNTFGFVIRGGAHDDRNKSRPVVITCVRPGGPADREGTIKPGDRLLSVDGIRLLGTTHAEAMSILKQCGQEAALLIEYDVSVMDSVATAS

T5: GRIP1_3, Q9Y3R0
T5 sequence (Q9Y3R0 247-346, limits assumed, looked up): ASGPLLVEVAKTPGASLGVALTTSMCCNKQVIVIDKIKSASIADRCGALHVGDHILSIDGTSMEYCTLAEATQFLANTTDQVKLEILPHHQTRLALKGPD

T6: LRRC7, Q96NW7
T6 sequence (Q96NW7 1440-1537, limits assumed, looked up): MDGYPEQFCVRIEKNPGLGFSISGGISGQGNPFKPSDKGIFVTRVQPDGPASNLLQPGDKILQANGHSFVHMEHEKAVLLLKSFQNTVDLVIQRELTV

T7: MPDZ_12, O75970
T7 sequence (O75970 1857-1958, limits assumed, looked up): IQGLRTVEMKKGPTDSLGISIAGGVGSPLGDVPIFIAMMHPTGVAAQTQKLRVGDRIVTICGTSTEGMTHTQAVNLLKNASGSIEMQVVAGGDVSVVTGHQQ

T8: PDZRN3_1, Q9UPQ7
T8 sequence (Q9UPQ7 244-349, limits assumed, looked up): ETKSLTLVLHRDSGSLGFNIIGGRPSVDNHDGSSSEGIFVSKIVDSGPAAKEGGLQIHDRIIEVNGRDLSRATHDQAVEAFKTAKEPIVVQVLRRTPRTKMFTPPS

T9: RADIL, Q96JH8
T9 sequence (Q96JH8 971-1071, limits assumed, looked up): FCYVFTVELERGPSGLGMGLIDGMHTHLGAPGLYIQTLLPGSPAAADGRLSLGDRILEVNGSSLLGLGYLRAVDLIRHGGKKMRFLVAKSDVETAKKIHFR

T10: RHPN1, Q8TCX5
T10 sequence (Q8TCX5 508-602, limits assumed, looked up): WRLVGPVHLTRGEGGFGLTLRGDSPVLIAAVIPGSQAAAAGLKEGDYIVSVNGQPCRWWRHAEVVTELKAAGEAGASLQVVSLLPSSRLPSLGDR

T11: SNTB1, Q13884
T11 sequence (Q13884 107-205, limits assumed, looked up): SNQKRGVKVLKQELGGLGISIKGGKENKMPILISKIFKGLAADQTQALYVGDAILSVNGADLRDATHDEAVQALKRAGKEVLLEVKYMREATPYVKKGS

T12: SNTG2, Q9NY99
T12 sequence (Q9NY99 68-166, limits assumed, looked up): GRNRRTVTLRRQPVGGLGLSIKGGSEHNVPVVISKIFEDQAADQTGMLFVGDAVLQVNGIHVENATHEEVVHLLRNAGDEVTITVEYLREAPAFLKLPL


Tests used:
Assay in all cases: holdup assay
Design in all cases: key: below the threshold = too weak to quantify, mostly under pKd 3.1 to 4
Details in all cases: plain residues with an end cap or a label only (N-terminal biotin on a linker: ado-ado)
AHNAK1, Q09666 = target: AHNAK1, Q09666
APBA2_1, Q99767 = target: T1, APBA2_1, Q99767
ARHGEF12, Q9NZN5-2 = target: ARHGEF12, Q9NZN5-2
DFNB31_1, Q9P202 = target: T2, DFNB31_1, Q9P202
DLG1_2, Q12959 = target: DLG1_2, Q12959
DLG2_3, Q15700 = target: DLG2_3, Q15700
DLG4_3, P78352 = target: DLG4_3, P78352
DVL3, Q92997 = target: T3, DVL3, Q92997
GRIP1_2, Q9Y3R0 = target: T4, GRIP1_2, Q9Y3R0
GRIP1_3, Q9Y3R0 = target: T5, GRIP1_3, Q9Y3R0
Inadl_10, Q8NI35 = target: Inadl_10, Q8NI35
Inadl_4, Q8NI35 = target: Inadl_4, Q8NI35
LRRC7, Q96NW7 = target: T6, LRRC7, Q96NW7
MAGI2_3, Q86UL8 = target: MAGI2_3, Q86UL8
MAGI2_5, Q86UL8 = target: MAGI2_5, Q86UL8
MPDZ_12, O75970 = target: T7, MPDZ_12, O75970
NHERF4_2, Q86UT5 = target: NHERF4_2, Q86UT5
PARD3_3, Q8TEW0 = target: PARD3_3, Q8TEW0
PDZRN3_1, Q9UPQ7 = target: T8, PDZRN3_1, Q9UPQ7
RADIL, Q96JH8 = target: T9, RADIL, Q96JH8
RHPN1, Q8TCX5 = target: T10, RHPN1, Q8TCX5
SCRIB_1, Q14160 = target: SCRIB_1, Q14160
SCRIB_3, Q14160 = target: SCRIB_3, Q14160
SNTB1, Q13884 = target: T11, SNTB1, Q13884
SNTG2, Q9NY99 = target: T12, SNTG2, Q9NY99

Sequence of MAGI2_3, Q86UL8 (Q86UL8 600-682): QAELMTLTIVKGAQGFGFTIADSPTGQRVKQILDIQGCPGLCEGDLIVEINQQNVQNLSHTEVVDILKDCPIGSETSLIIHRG
Sequence of PARD3_3, Q8TEW0 (Q8TEW0 582-685): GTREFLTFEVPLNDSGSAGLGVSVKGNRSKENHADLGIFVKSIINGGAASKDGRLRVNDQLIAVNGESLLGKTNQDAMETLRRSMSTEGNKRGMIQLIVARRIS
Sequence of Inadl_10, Q8NI35 (Q8NI35 1673-1763): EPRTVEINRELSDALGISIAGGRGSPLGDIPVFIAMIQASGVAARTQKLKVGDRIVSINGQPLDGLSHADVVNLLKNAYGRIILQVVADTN
Sequence of SCRIB_1, Q14160 (Q14160 718-814): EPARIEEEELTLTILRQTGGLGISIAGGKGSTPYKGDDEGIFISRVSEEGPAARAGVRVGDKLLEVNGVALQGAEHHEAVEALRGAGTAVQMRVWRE
Sequence of SCRIB_3, Q14160 (Q14160 999-1103): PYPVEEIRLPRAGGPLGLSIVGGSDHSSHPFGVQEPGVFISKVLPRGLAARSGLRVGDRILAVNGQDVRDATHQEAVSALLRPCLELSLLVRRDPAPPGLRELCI
Sequence of MAGI2_5, Q86UL8 (Q86UL8 915-1017): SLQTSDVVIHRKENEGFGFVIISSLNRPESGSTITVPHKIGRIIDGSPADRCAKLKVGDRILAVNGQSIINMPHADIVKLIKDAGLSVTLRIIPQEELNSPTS
Sequence of ARHGEF12, Q9NZN5-2 (Q9NZN5 other isoform, or with tags, fused parts or gaps): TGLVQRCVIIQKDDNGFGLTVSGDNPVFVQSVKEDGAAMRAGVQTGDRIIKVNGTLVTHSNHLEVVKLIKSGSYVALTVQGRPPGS
Sequence of DLG1_2, Q12959 (Q12959 314-412): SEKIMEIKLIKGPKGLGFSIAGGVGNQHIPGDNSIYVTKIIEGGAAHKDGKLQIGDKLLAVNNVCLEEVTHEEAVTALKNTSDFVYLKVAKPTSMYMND
Sequence of DLG4_3, P78352 (P78352 306-403): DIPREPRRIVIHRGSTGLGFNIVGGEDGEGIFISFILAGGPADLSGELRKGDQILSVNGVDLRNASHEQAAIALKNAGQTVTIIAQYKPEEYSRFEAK
Sequence of NHERF4_2, Q86UT5 (Q86UT5 220-308): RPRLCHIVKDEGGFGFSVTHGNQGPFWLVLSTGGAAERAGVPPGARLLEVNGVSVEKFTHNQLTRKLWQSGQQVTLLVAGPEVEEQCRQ
Sequence of Inadl_4, Q8NI35 (Q8NI35 547-651): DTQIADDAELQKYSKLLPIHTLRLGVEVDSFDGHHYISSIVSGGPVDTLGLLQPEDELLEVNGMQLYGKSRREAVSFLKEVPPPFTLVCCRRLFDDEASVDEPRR
Sequence of AHNAK1, Q09666 (Q09666 4-100): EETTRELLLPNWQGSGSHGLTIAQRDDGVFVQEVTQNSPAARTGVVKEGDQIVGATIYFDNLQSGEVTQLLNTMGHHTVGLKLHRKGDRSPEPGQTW

pKd (AHNAK1, Q09666)	pKd (APBA2_1, Q99767)	pKd (ARHGEF12, Q9NZN5-2)	pKd (DFNB31_1, Q9P202)	pKd (DLG1_2, Q12959)	pKd (DLG2_3, Q15700)	pKd (DLG4_3, P78352)	pKd (DVL3, Q92997)	pKd (GRIP1_2, Q9Y3R0)	pKd (GRIP1_3, Q9Y3R0)	pKd (Inadl_10, Q8NI35)	pKd (Inadl_4, Q8NI35)	pKd (LRRC7, Q96NW7)	pKd (MAGI2_3, Q86UL8)	pKd (MAGI2_5, Q86UL8)	pKd (MPDZ_12, O75970)	pKd (NHERF4_2, Q86UT5)	pKd (PARD3_3, Q8TEW0)	pKd (PDZRN3_1, Q9UPQ7)	pKd (RADIL, Q96JH8)	Binder	also measured
below the threshold	below the threshold	below the threshold	below the threshold	below the threshold	below the threshold	below the threshold	3.59	below the threshold	below the threshold	below the threshold	below the threshold	3.75	below the threshold	below the threshold	below the threshold	below the threshold	4.25	below the threshold	4.44	VCMGDHWFDV [PRKN, O60260]	pKd (RHPN1, Q8TCX5): below the threshold; pKd (SCRIB_1, Q14160): 3.55; pKd (SCRIB_3, Q14160): 3.98; pKd (SNTB1, Q13884): below the threshold; pKd (SNTG2, Q9NY99): below the threshold
below the threshold	below the threshold	4.15	below the threshold	below the threshold	3.87	below the threshold	below the threshold	below the threshold	below the threshold	below the threshold	below the threshold	below the threshold	below the threshold	below the threshold	below the threshold	below the threshold	below the threshold	below the threshold	below the threshold	QRYPGNQTTC [CCL24, O00175]	pKd (RHPN1, Q8TCX5): 4.2; pKd (SCRIB_1, Q14160): 3.92; pKd (SCRIB_3, Q14160): 3.64; pKd (SNTB1, Q13884): 3.6; pKd (SNTG2, Q9NY99): below the threshold
below the threshold	below the threshold	below the threshold	below the threshold	below the threshold	below the threshold	below the threshold	below the threshold	below the threshold	below the threshold	below the threshold	below the threshold	below the threshold	below the threshold	below the threshold	below the threshold	below the threshold	below the threshold	below the threshold	below the threshold	SQPLLVHDDV [KIT, P10721]	pKd (RHPN1, Q8TCX5): below the threshold; pKd (SCRIB_1, Q14160): below the threshold; pKd (SCRIB_3, Q14160): below the threshold; pKd (SNTB1, Q13884): below the threshold; pKd (SNTG2, Q9NY99): below the threshold
below the threshold	below the threshold	3.92	3.61	4.06	below the threshold	below the threshold	below the threshold	below the threshold	below the threshold	below the threshold	below the threshold	below the threshold	below the threshold	3.78	below the threshold	below the threshold	below the threshold	below the threshold	4.05	KLQNPNQSVV [TYRP1, P17643]	pKd (RHPN1, Q8TCX5): 3.77; pKd (SCRIB_1, Q14160): 3.52; pKd (SCRIB_3, Q14160): below the threshold; pKd (SNTB1, Q13884): 3.72; pKd (SNTG2, Q9NY99): 3.64
below the threshold	below the threshold	below the threshold	below the threshold	below the threshold	below the threshold	below the threshold	below the threshold	below the threshold	below the threshold	below the threshold	below the threshold	below the threshold	below the threshold	below the threshold	below the threshold	below the threshold	below the threshold	below the threshold	4.07	PKSNSSKEYV [CLDN7, O95471]	pKd (RHPN1, Q8TCX5): below the threshold; pKd (SCRIB_1, Q14160): below the threshold; pKd (SCRIB_3, Q14160): below the threshold; pKd (SNTB1, Q13884): below the threshold; pKd (SNTG2, Q9NY99): below the threshold
